Experiments:
[1] = target: T1, Muscarinic acetylcholine receptor M1 (Homo sapiens, UniProt P11229); assay: [3H]-NMS equilibrium inhibition binding
T1 chain: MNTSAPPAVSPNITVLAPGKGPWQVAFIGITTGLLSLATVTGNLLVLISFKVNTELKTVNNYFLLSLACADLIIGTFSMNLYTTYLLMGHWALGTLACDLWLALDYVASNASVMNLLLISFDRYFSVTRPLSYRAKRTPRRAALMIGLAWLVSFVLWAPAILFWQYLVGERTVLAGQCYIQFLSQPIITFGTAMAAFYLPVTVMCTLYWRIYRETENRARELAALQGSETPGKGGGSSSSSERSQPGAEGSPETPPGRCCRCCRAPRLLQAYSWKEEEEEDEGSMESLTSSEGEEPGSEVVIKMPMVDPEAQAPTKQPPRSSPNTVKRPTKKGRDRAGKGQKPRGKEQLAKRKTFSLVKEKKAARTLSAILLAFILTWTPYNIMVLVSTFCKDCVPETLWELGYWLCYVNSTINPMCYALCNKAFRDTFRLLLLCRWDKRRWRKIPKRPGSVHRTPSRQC

[2] = target: T2, Muscarinic acetylcholine receptor M4 (Homo sapiens, UniProt P08173); assay: [3H]-NMS equilibrium inhibition binding
T2 chain: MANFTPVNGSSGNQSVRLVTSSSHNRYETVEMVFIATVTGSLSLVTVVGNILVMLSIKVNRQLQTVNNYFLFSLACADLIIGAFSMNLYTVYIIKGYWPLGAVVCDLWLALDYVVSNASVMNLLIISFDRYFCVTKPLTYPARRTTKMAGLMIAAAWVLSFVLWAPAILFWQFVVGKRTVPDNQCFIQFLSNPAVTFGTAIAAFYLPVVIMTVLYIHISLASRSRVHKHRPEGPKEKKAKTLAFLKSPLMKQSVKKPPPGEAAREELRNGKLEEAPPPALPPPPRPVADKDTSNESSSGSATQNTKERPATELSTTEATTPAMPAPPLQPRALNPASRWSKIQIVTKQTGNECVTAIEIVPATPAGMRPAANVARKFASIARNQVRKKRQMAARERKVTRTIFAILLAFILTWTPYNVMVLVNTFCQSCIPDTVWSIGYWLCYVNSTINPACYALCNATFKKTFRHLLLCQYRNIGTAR

alpha1A-adrenoceptor = target: T3, alpha1A-adrenoceptor (Homo sapiens, UniProt P35348); assay: [3H]-Prazosin equilibrium inhibition binding
T3 chain: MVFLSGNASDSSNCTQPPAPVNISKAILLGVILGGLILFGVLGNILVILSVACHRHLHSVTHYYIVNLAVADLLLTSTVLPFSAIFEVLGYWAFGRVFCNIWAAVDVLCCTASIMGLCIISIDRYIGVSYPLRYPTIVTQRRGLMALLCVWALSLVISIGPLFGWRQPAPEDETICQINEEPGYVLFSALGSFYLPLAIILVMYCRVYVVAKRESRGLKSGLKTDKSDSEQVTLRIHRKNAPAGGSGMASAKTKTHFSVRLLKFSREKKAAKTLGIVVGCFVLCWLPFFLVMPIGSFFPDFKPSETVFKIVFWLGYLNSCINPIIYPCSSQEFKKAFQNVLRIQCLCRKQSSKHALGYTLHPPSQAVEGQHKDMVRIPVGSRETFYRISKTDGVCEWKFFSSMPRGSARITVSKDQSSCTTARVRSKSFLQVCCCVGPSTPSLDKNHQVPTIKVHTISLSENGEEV

B1: Muscarinic toxin 1 (MT1) (protein)
chain: LTCVTSKSIFGITTENCPDGQNLCFKKWYYIVPRYSDITWGCAATCPKPTNVRETIRCCETDKCNE
In the case of B1, the Ki [1] is reported as 24 nM, the Ki [2] is reported as 310 nM and the Ki (alpha1A-adrenoceptor) is reported as 62 nM.

B2: Muscarinic toxin 7 (MT7) (protein)
chain: LTCVKSNSIWFPTSEDCPDGQNLCFKRWQYISPRMYDFTRGCAATCPKAEYRDVINCCGTDKCNK
With B2 the Ki [1] was 0.034 nM, the Ki [2] was 13000 nM and the Ki (alpha1A-adrenoceptor) was > 20000 nM.

Source: paper PMC3375269 (2012)
